From patent US8318206

Legend:
[1] = tested on: fluorenyl-9-methoxycarbonyl (Fmoc)-SSFYSGGGC-CONH2
[2] = tested on: T1, Fmoc-Gly-Phe-Cys-NH2 (peptide 1)
T1 sequence: GFC

Row | Substance | dispersion of the aggregate (percentage change in intensity against time) [1] | disassembly of nanoparticle aggregate [2]
1 | Prostate Specific Antigen (PSA) | Discrimination of PSA concentration is seen after 5 min | 
2 | trypsin |  | 8.5 nm gold particles functionalised with Fmoc-Gly-Phe-Cys-NH2 did not disassemble upon introduction of trypsin
